Laboratory results as given in publication PMC10936212.

What was measured:
[1] = target: CosR (Campylobacter jejuni) (UniProt A0A3H9R6A1); assay: fluorescence polarization; details: FP: 10 mM PBS pH 7.4, 5 nM fluoresceinated DNA, 1 ug poly(dI-dC), 25 C
[2] = target: Campylobacter jejuni CosR regulator (Campylobacter jejuni); assay: cryo-EM structure; single-particle cryo-EM of 20 uM CosR incubated 2 h with 10 uM 40 bp ds-DNA; the class of DNA-free particles (apo-CosR) sorted in silico (build and retrieve), 3.77 Å
[3] = target: Campylobacter jejuni CosR regulator (Campylobacter jejuni); assay: crystal structure; CosR (8 mg/mL) with 21 bp DNA1 duplex (2.6 mg/mL), vapor diffusion, Na-MES pH 6.5, 2.90 Å; the dimer is formed by a crystallographic symmetry operator
[4] = target: Campylobacter jejuni CosR regulator (Campylobacter jejuni); assay: crystal structure; CosR (320 uM) with 21 bp DNA2 duplex (192 uM), vapor diffusion, Na-MES pH 6.5, 2.20 Å

stoichiometry N [2]	stoichiometry N [3]	stoichiometry N [4]	Substance	Kd [1] [nM]
–	–	–	AATTAAGATATTATTAACCAA (double strand) [DNA2 (fluorescein)]	2.5
2	2	2	Campylobacter jejuni CosR regulator (natural protein)	–
–	–	–	TATTAACCAAAATTAAGATAT (double strand) [DNA1 (fluorescein)]	4.5
